In article PMC9091222, “Profiling of hMPV F-specific antibodies isolated from human memory B cells” (Nature Communications, 2022):

B1: M4B06 IgG (antibody, V domains shown)
VH: EVQLLESGGGFVQPGGSLRLSCVVTGFTFSNYAMCWVRQAPGKGPEWVSGIGGSVGTTYYADSVKGRFTISRDNSKNTLYLQMSGLRAEDTARYYCAKVPSFFVFEDGFDMWGQGTVVTVSS
VL: QSVLTQPPSASGNPGQRVTISCYGSGSNIGNNYVHWFRQLPGTAPRLLIYNTDILVPGVPDRFSGSESGTSASLAISGLQSGDEADYFCAAWDDTLNGYVFGPGTTVTVL
B2: M4B06 Fab (Fab, V domains shown)
VH: EVQLLESGGGFVQPGGSLRLSCVVTGFTFSNYAMCWVRQAPGKGPEWVSGIGGSVGTTYYADSVKGRFTISRDNSKNTLYLQMSGLRAEDTARYYCAKVPSFFVFEDGFDMWGQGTVVTVSS
VL: QSVLTQPPSASGNPGQRVTISCYGSGSNIGNNYVHWFRQLPGTAPRLLIYNTDILVPGVPDRFSGSESGTSASLAISGLQSGDEADYFCAAWDDTLNGYVFGPGTTVTVL
notes: as the heavy chain of m4 before CDR3 (germline IGHV3-23*01); heavy chain CDR3; rest of VH after CDR3 and CH1 of the Fab; as the light chain of m4 before CDR3 (germline IGLV1-44*01); light chain CDR3; as the light chain of m4 after CDR3; The Fab was not built in the cryo-EM density map; also called M4B06 monovalent Fab; source: recombinantly purified

Legend:
[1] = target: unprocessed hMPV PreF trimer (wild-type hMPV F ectodomain trimer, strain B2, C-terminal GCN4 trimerization … (Human metapneumovirus, subgroup B2 …, UniProt Q6W8S4, strain)); test: cell-based or functional assay
[2] = target: T1, processed stabilized hMPV PreF trimer (115BV), co-expressed with furin (Human metapneumovirus, subgroup B2 …, UniProt Q6W8S4, stabilised); test: cryo-EM structure; M4B06 Fab incubated with processed PreF (115BV) trimer (trimer:Fab = 1:3) for 1 h at 4 °C, purified on Superdex 200 Increase in 25 mM HEPES pH 7.5, 150 mM NaCl; map at 3.75 Å, no symmetry imposed; Fab not built; conditions: both partners purified
T1 construct: F2 chain of the fusion (F) glycoprotein of human metapneumovirus, strain B2, after cleavage by co-expressed furin; disulfide-linked to F1; F1 chain (ectodomain part) of the fusion (F) glycoprotein of human metapneumovirus, strain B2, after cleavage by co-expressed furin; also called processed PreF; prefusion-stabilized hMPV F trimer 115BV; source: Expi293, co-transfected with furin at 1:1, …

Row | Binder | neutralization IC50, hMPV A virus (plaque reduction neutralization assay) [1] | neutralization IC50, hMPV B virus (plaque reduction neutralization assay) [1] | stoichiometry N [2]
1 | B1 | 3.5 ng/mL | 2.2 ng/mL | –
2 | B2 | – | – | 3 Fabs per PreF trimer
